Among the data in the NTF2 design screens of Basanta et al. (2020) are protease stability score values, retold here.

The data set can be described thus: protease stability score; higher = more stable; yeast display proteolysis, trypsin and chymotrypsin.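 Further: log10 excess protease needed over predicted unfolded state with 0 meaning unfolded.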
Take “DEEARKEIKKAARAYKTGDWQELVHQMDEDVKVEYGDHKIDGHEQVQKWVDENRKQLTMSVKSLSVELSGNTASVDMKHDARHNGRPRTQTAHIEIQAHNGRLKRVKIEYTQ”: the protease stability score was -0.178. For “DEETLRQANRKIQEFLSTNNFDELAKQMDKDVQIRIGDKEVHGRKDAQKMLTDIKDDADHASVHHVDVRGDKAKVRFEVNHNGSVKDVTVTITFHNGRIKRAKWHDT” the value was 0.089. Under “DEDRYRRKIEEVFKQVENGDEKKMKKDLKENVKYKYADKEKEGPEVAEHIVKVVKKIGAEVTRKEQEVKGDTLRAKFQYRKGDQTVRTEAEATYEGDQAKEVRVKMTDEVKKIVHQG” stands 0.05. For “DDTRKAKELADRIVKAIKHGDEEYYERLVDKDVHADVGDRTVRGSETLVNTFQHEVEKADHIDAKVRSVSAHNGKIHISITVVVDVNGQQNSKEYTVIANTSNGRVRVEQINFK” the value was 0.454; for “DEKKQAKRLHETMDRILTQGNPHEAKHLFDKDARIDVGDKKVHGREQIAKSLAERVRQVDHIHNQVDHVEVDNGQLNMTVRFQQETNGKTHDYSAQHRVDIDGDKVKVVKVTHQ”, -0.336. Turning to “DEDARSNFQELLKALQTGDERLFEKNVDPNVTFRYGDKTLTGRHHIMEQLRRDKENSRQDFDVKEWHFHGNRIDVKAQLRFEKNGKPDTVDVNLVAIAHNGRIQEIQIDVQK”, the protease stability score was -0.278. Under “DEEEQKKRAKKQADAMRQGDTDELVKMLRDDVRVKVGDKEVHGREDLKKWAREIKKEVDHIQIRQVQVHNGRIDFHIVVNHNGKNKEVVLVVRVRNGQATDFKLTRK” stands 0.051; under “DEDVVKEWMTDQRNNNEKRLQSLVDPNAKLEYGDKSIHGDEEMHEWAKKLRESVDHWEVKEYDIHNGTAEADVVVQFNGREIRYQFVAVAHNGSVTSIVYRARDEDFERFLDDIFS”, 0.165; under “DEDDANQVERDLRENDWDQLVRNFDEDARIQIGDYTIHGREDYKRWLEEVEKQVDKVEIKQVDIHGNNIVVDYRQQVNGQHVRAIMVITMDNGKIKEMHVDVRSEDAKRAYERIFR”, 0.525. Under “DEDQHRRWQELMKAIETGDPERIKELMDPNAEFVVGDKHVRGREKYAREVHRELRTMRVEFRILSLRVQGDRLLADVEVVTHDDGKPTSHRFKLEVKAENGTIRVFRNQSVP” stands 0.155; under “DKTAAHVVHQFLRNVDTGDPKKASDNADPNVTINVGDKEIRGRENLQKEIDKQKKDWRQTVRVTSFKDHNGKVHVDARYTADVNGKPIDDTFQFEMQAHNGKLKYVNVQLDEDKKKEQDS”, 0.032; under “DESQAEALHEVLQAERTNDPKKVEEQMDPHVNIVIGDKTYHGRDRIREDVKRKIDEMRVHVESVRFDEQGDKARAEATLRYNHNGRPSSKKIVIQMKAENGQIKTMRVHDTK”, -0.646.

“DEDENNKILESINTNDSKHNKDLLDKDVTIRYGDKQVQGREEALEFLDTWNKRVDHFRVHHMTVKGDKLRMRFEIVFNGVTVEVSLSAKVENGRMKHFHLDARDEKVRHRLKRMFG” had a protease stability score of 0.108. Under “EEEKYQKLAKKVFEAVDKGNYEEVVKLGDENGKFQFGDNRVEGLEQYKRLMEKFEKKGVQVRVRKAQNKDDTATMVTTVKYGDVENTVTAELKYEGGKLKEARVENDEEVKEAVKKG” stands 0.031; under “DENVLKRVKELLRTNNWEELANKADKDVEMRVGDKEWRGREQVVRAHKKLYDRVDHFKIDSMHWRNGHLVVNFVAEVNGKRAVMVLEMKVHNGRIKRITLEARDKDDEEFIEEALR”, 1.47.

“DEEEIHTMLEVLKQNDEQTLQDLFDENAKISVGEFRFHGRDEAIEFAREFNKAVDHVHYKRVDVQGNRARVKMQLNVNGKNIDVVVKVEIHNGRIKSLRIDVRDEQLRRDLEEAFR” returned a protease stability score of 1.71. Under “DKNNLKRYDKLLKILQTGDEHKAKKLADPNVKVKVGDKEIKGWDRFVHESAKRWREARIELKIKHVDVSGDKVTIDYEAEVEVNGKPIRYTATFRFVVHNGRIKTINFSMDENQRETVKR” stands 0.007; under “DERIRKEHTKRLKAEQTGDPKSAHDMADENVRVKVGDKDLTGMDNIVKTIHEEKKDQRNQLDVHSIELHGEKVKIEMQVVIEHNGRPHKTEQYLVFRADNGKLKRMEQHDSG”, 0.023; under “DEEHQKKMAEDFVKALERGDKDQFHSLFDENAKMQYGDKTVHGREDVKRWVEHVKERVDHLKVDKIEVSGNKVVLKMVINVDGQRLDMVITIHLHNGHIQSAEARVTDPDQERKANS”, 1.26. Under “DEDLDKQAQEFIHAMQEGDPQRLSEQMDPNARFHVGEKNIHGKEEVMRDFQRTVDQAEIEFKEYSVRAEPGRVRIKLHYVDNNDGRPHSKVQDMVIVFHNGKLVVIDVNDSQ” stands 0.236; under “DEEINKQIRTMIESRTHGDEEDELRNADPNAKFRIGDKDYHGKEELKKWVKTQHDQAHVEFIIRSVRVHGNKVSMDMQVVLNVNGRPETIDASMSAEVDNGRFKRIDIHLDPDRVRTALQ”, 1.16; under “DEEKKARRWFESFIEVFRSNDPDQAKKLADPNVRAEYGDKHYHGREEFMKHFITLAERVDHVDIELHSLRIDGNRIVMNMRYRLRYNGRTESNEVTVILVIKNGKLHIQEVREG”, 1.41. For “DEHIEEVATKHLKAQHTNDPKQFRDLADKDVEVEVGDKNIHGREQNANEQKRRRDEWEFEMKIDHISAHDGRAILRVKINYVVNGKPINVDAVIRLHAHNGTIKELSVQVDPDQMREVKS” the value was 1. Sequence “DEENLRVVVHLMKAVETGDPTKARRNLDKDVHFNVGNRRIHGREQFQKELDDEKKDISINVKDYRVRDKNGKAHFTVRFVLEVNGRPMEMKITMQAEAHNGRIKHVQQQVSEEDEKRINK” displayed a protease stability score of -0.094. Regarding “DEEKHDDFARKLVRAVQSNDFRQQEKMFRQDVRMRVGDKEVHGREQFRDWLRTLDEEVDRYEVKSVTAQGDKVKIVAVFRINGKQFTLTVTIHVSNGKAVNMRINPDQQRQQER”, the protease stability score turned out to be 0.104. Under “ERELVSIAQDILHALEHGDPQQFRDLVDPNAKFKVGDHEWHGRESAANEYAKEQRKMNNKYDRVTWDNNGDHIRARFNWVNHSNGEPKRKQATQELVLHNGRLVSMKQDDTQ” stands -0.052; under “DDRVLHEMVKVMETGDFEKFARLADPNATIEYGDKKIHGREDAEKFATKIKQRVDHVQIKTYSVKGDSARIHFELNVNGSRIDMVLVLQVKNGRLRRASFEFRDREDSKEFVKRVH”, 0.068. Under “DEEFVRTVVKAHEENDEKKFNDLMDKDVKVDIGNKELRGRDQARKQLHHLRDKIDHYHVKSVTFKGNRIQIKAEFQVDGRRISAIYQQDVHNGHITSFRVSVTDPRDKHKLDEIVG” stands 0.151; under “EEKATRIAHELLSAVERGDEDRAEENFDENAQFQVGDKDIHGREQMKHFVKTVKEQSRLDMHITDVQDRPGHANVKATAREDNNGNPNNIRITMRASVSNGRIQSMQINYTD”, -0.638. Under “DEKKLEEVAKKVMDAMRKGDSETLVKLGKPDVTFKVADIEFKGQDQLRKYYKLDQDVGVELHLKEEKKEGNKFTMVYDARFGGTQDTVEVEVEVKDEKVDKARAKFTEEYAKHIQKG” stands 0.586; under “DKELQDTAHKLAKNGDFSRLAELADEDVQIKIGDERVTGREEQKKLVEVQQRRIDHVEVDRVHAQGNKVSVNMTIVVDGESRTVNIDITMHNGRVKEIVYNATSEEARKEMTKWYR”, -0.362. In turn, “DDHAVRLLNDIVRALNSGDEQKVADNADPNVRIEYGDSVITGRERLMEEIQKRRKELRFEVQVDRVREKPNHVVADVQLHFNVNGQPRNMKVEVRATWTNGKLKHMHIKMDEEQVRQLKR” had a protease stability score of 1.1.

As to “DEDKVRELVKKAFKAIVNGNEEEVRKLLDPNVKYKYVDKEFEGEEVAKFLVEMVRKLGAKVETEKTHIEGNTARATFVYKLGDQKVQTHAEVKYEGDKVKEVRVEMTDEDKKQLHRG”, the protease stability score was 1.17.
